Results reported in patent publication US20070196354A1, “Method of treating diabetes by inhibiting degradation of at least one of crebl1, atf6, and hnf-4 alpha by htra” (priority 2003, published 2007).

T1: CREBL1 (Homo sapiens, UniProt Q99941)
T1 construct: expressed in transfected cells; host or cells: HEK293T
T1 sequence (Q99941 1-703): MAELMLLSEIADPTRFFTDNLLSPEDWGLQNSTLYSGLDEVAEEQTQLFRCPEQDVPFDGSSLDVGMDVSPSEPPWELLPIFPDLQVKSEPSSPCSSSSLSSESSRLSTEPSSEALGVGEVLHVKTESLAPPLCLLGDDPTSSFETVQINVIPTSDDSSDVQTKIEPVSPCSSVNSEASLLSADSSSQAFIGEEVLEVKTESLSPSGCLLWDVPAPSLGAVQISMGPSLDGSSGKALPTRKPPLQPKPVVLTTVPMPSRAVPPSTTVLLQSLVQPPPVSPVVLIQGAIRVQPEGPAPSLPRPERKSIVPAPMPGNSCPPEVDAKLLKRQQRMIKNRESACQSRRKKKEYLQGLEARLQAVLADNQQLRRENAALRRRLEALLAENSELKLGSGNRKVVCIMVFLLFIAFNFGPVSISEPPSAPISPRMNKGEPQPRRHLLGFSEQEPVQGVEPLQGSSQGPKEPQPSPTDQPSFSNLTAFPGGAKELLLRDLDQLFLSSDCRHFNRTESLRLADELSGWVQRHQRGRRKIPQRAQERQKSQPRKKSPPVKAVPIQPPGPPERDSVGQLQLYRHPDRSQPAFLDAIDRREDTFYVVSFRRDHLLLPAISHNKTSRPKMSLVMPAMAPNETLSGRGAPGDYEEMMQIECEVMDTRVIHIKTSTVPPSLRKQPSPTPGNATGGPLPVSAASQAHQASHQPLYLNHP

T2: ATF6 (Homo sapiens, UniProt P18850)
T2 construct: expressed in transfected cells; host or cells: HEK293T
T2 sequence (P18850 1-670): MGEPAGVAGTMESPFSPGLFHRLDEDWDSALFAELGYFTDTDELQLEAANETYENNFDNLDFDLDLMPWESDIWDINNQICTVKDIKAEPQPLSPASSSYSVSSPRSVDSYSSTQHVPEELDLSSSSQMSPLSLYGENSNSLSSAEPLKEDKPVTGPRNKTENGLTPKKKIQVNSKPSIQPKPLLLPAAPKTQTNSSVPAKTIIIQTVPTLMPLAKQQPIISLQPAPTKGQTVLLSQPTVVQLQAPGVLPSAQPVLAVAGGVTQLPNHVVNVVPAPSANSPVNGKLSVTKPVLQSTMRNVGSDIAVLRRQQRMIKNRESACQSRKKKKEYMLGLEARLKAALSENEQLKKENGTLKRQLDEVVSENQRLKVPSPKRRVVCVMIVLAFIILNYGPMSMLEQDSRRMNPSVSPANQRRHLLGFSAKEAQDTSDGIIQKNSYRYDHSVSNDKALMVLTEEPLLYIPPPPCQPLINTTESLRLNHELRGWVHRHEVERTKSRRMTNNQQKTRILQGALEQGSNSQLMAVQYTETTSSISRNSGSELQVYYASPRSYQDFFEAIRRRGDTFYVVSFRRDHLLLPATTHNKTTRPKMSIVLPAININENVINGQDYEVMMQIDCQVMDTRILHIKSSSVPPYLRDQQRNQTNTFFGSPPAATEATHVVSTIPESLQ

T3: HNF-4α (Homo sapiens, UniProt P41235)
T3 construct: expressed in transfected cells; host or cells: HEK293T
T3 sequence (P41235 10-474): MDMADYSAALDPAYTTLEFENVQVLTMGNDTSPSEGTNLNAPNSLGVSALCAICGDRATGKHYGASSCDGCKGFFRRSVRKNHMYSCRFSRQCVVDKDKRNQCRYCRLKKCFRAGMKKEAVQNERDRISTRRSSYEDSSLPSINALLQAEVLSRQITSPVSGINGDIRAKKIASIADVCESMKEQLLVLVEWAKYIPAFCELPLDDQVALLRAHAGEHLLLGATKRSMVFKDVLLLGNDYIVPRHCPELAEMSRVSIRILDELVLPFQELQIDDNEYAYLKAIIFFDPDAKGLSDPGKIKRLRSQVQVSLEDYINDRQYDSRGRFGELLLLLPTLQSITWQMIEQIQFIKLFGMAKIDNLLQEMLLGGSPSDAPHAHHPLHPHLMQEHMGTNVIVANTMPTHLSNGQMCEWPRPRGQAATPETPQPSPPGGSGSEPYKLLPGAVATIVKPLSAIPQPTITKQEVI


What was measured:
[1] = tested on: casein; assay: Casein zymography and protease assay with casein sodium; type: biochemical; conditions: for protease activity using casein sodium as a substrate: HtrA2 types expressed in a cultured cell
Experimental: Determination of the activity of mature HtrA2 and mature HtrA2 (S306A) was carried out with casein zymography and with a protease assay with casein sodium. Casein zymography was carried out according to the protocol (Invitrogen). More concretely, mature HtrA2 and mature HtrA2 (S306A) were mixed under non-reductive condition with equivalent volume of 2×SDS sample buffer, left to stand at room temperature for 10 min, followed by separation with 4-16% zymogram (Blue casein) gel (Zymogram Gel, Invitrogen). After completion of electrophoresis, they were renatured with 2.5% Triton X-100, and then subjected to a degradation reaction of casein in the developing buffer at 37= C. for overnight.
Meanwhile, a protease assay using casein sodium as an substrate was carried out in such that mature HtrA2 or mature HtrA2 (S306A) was mixed with casein sodium in a reaction buffer (150 mM NaCl, 50 mM Tris-HCl (pH 7.5)) so as to the concentration of the former might become 200 μg/ml and the concentration of the latter might become 400 μg/ml, and incubated at 37° C. for reactions. A portion of the reaction solution was sampled at three hours and overnight after initiation of the reaction, mixed with equivalent volume of 2×SDS sample buffer followed by boiling, and then subjected to SDS-PAGE. After that, the degradation of casein sodium was detected by Coomassie Brilliant Blue (CBB) staining.
The enzyme activity of the various types of HtrA2 each of which was expressed in a cultured cell was determined by the protease assay using casein sodium as a substrate (see Example 2).

[2] = target: T1, CREBL1; assay: Intracellular protease assay, co-expression with CREBL1 in HEK293T cells; type: cell-based; conditions: 48 hours
Experimental: (§1) HEK293T cells were cultured to 1.5×10^5 cells/10 cm Dish. Next day, the expression plasmid of CREBL1 or ATF6 was transfected into HEK293T cells together with the expression plasmid of various types of HtrA2 using FuGene 6 (Roche). Each of the expression plasmid of various HtrA2 at 1 μg/Dish was added in combination with CREBL1 expression plasmid or ATF6 expression plasmid at 1 μg/Dish. Forty eight hours later, the cells in which the various types of HtrA2 were co-expressed with CREBL1 or ATF6 were added with 200 μl of lysis buffer B and an equivalent volume of 2×SDS sample buffer (containing 0.1% β-mercaptoethanol), and then subjected to sonication followed by boiling to use as a test sample.
(§2) Expression of CREBL1 and ATF6 and the degradation of these proteins were detected by western blotting using 10 μl of the test sample thus obtained. Anti-c-Myc (9E10) antibody was used as a primary antibody for detection, and horseradish peroxidase (HRP) conjugated anti-mouse IgG antibody (Cell Signaling) was used as a secondary antibody. Detection was carried out using ECL Western Blotting Detection System.

[3] = target: T2, ATF6; assay: Intracellular protease assay, co-expression with ATF6 in HEK293T cells; type: cell-based; conditions: 48 hours
Experimental: as §1, §2

[4] = target: T3, HNF-4α; assay: Intracellular protease assay, co-expression with HNF-4α in HEK293T cells; type: cell-based; conditions: 48 hours
Experimental: as §1, with “cells/6” for “cells/10”, “HNF-4α” for “CREBL1 or ATF6”, “HNF-4α” for “CREBL1 expression plasmid or ATF6”
Expression of HNF-4α and the degradation of HNF-4α were detected by western blotting using 10 μl of the test sample thus obtained. Anti-FLAG antibody (Sigma) was used as a primary antibody for detection, and horseradish peroxidase (HRP) labeled anti-mouse IgG antibody (Cell Signaling) was used as a secondary antibody. Detection was carried out using ECL Western Blotting Detection System.

Row | Molecule | degradation of casein ([1]; casein zymography and casein sodium protease assay, 37° C., E. coli-expressed His-tagged protein) | protease activity using casein sodium as a substrate [1] | degradation of CREBL1 in cells (band by western blotting) [2] | degradation of ATF6 in cells (band by western blotting) [3] | degradation of HNF-4α in cells (band by western blotting) [4]
1 | mature HtrA2 (S306A): SEQ ID NO: 6; HtrA2 mutant with substitution of the 174th serine residue of mature HtrA2 with alanine (protein, Polypeptide consisting of the same amino acid sequence of SEQ ID NO4 wherein the 174th amino acid residue is substituted by Ala; mature HtrA2(S306A), HtrA2 mutant with substitution of the 174th serine residue of mature HtrA2 with alanine) MAVPSPPPASPRSQYNFIADVVEKTAPAVVYIEILDRHPFLGREVPISNGSGFVVAADGLIVTNAHVVADRRRVRVRLLSGDTYEAVVTAVDPVADIATLRIQTKEPLPTLPLGRSADVRQGEFVVAMGSPFALQNTITSGIVSSAQRPARDLGLPQTNVEYIQTDAAIDFGNAGGPLVNLDGEVIGVNTMKVTAGISFAIPSDRLREFLHRGEKKNSSSGISGSQRRYIGVMMLTLSPSILAELQLREPSFPDVQHGVLIHKVILGSPAHRAGLRPGDVILAIGEQMVQNAEDVYEAVRTQSQLAVQIRRGRETLTLYVTPEVTE | degradation of casein was not observed | – | – | – | –
2 | mature HtrA2 (ΔAVPS): SEQ ID NO: 8; lacks the N-terminal four amino acid residues (AVPS) of mature HtrA2 (protein, Polypeptide consisting of the same amino acid sequence of SEQ ID NO4 wherein the amino acid residues from the 2nd to the 5th are deleted; mature HtrA2(delta AVPS)) MPPPASPRSQYNFIADVVEKTAPAVVYIEILDRHPFLGREVPISNGSGFVVAADGLIVTNAHVVADRRRVRVRLLSGDTYEAVVTAVDPVADIATLRIQTKEPLPTLPLGRSADVRQGEFVVAMGSPFALQNTITSGIVSSAQRPARDLGLPQTNVEYIQTDAAIDFGNSGGPLVNLDGEVIGVNTMKVTAGISFAIPSDRLREFLHRGEKKNSSSGISGSQRRYIGVMMLTLSPSILAELQLREPSFPDVQHGVLIHKVILGSPAHRAGLRPGDVILAIGEQMVQNAEDVYEAVRTQSQLAVQIRRGRETLTLYVTPEVTE | – | active type having protease activity | the band of CREBL1 was reduced significantly | the band of ATF6 was reduced significantly | the band of HNF-4α was reduced significantly
3 | mature HtrA2 (GVPS): SEQ ID NO: 10; substitution of alanine among the N-terminal four residues of mature HtrA2 with glycine (protein, Polypeptide consisting of the same amino acid sequence of SEQ ID NO4 wherein the 2nd amino acid residue is substituted by Gly; mature HtrA2(GVPS), substitution of alanine among the N-terminal four residues of mature HtrA2 with glycine) MGVPSPPPASPRSQYNFIADVVEKTAPAVVYIEILDRHPFLGREVPISNGSGFVVAADGLIVTNAHVVADRRRVRVRLLSGDTYEAVVTAVDPVADIATLRIQTKEPLPTLPLGRSADVRQGEFVVAMGSPFALQNTITSGIVSSAQRPARDLGLPQTNVEYIQTDAAIDFGNSGGPLVNLDGEVIGVNTMKVTAGISFAIPSDRLREFLHRGEKKNSSSGISGSQRRYIGVMMLTLSPSILAELQLREPSFPDVQHGVLIHKVILGSPAHRAGLRPGDVILAIGEQMVQNAEDVYEAVRTQSQLAVQIRRGRETLTLYVTPEVTE | – | active type having protease activity | the band of CREBL1 was reduced significantly | the band of ATF6 was reduced significantly | the band of HNF-4α was reduced significantly
